Assay results published in the domain aggregation screens of Martell et al. (2025).

Experiment: soluble fraction after stress (log2 fold change); higher = more stays soluble; pooled small domains, quantitative proteomics
Details: stress: 50 degC
Summary of the method: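 After stress at 50°C, the amount of each protein still soluble was measured. This was done on pooled custom libraries of small protein domains, using high-throughput quantitative proteomics. The figure given is a base-two log fold change and stands for aggregation propensity, with higher values meaning more protein stays in solution.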
In the case of “HMTNKKIILEIFQNSDKPLIVEEISKKMFEKTGKKMILSTIYRNLKNMEDVGILKKIYNEDGSYMYIF”, the “soluble fraction (log2)” value is reported as -0.953.
For “HMTNKQEYAYQWLKSSIIENKIKPSTLLVERHLSEMLHISRTPVRTALMRLADEGFVVISPGRGMVVA”, the “soluble fraction (log2)” value was -2.03.
With “HMTNQEFNAAFKPFLDYFPTTEMTKEKINIYYLALSDLSKEQLGSAFISMVKNRVYKNFPQVAEIRQYATN” the “soluble fraction (log2)” value was -0.0953.
In the case of “HMTNTDYPGKVVPVDPDGKTLKPDGDASYNDKPGTKVKTPTVPGYTAEVPNVEVPVGGGDIKVTYHKKPV”, the “soluble fraction (log2)” value is reported as 0.372.
In the case of “HMTNVYSLIGKRGIVVEDIDWQKGTGQVKIDGELWSVKTNEQINISKGTEVEVENIEGVKVFVKPI”, the “soluble fraction (log2)” value is reported as 0.09.
With “HMTNYGTVRPGARGQAVTALQQALIRHGYKLTADGIYGRATRQAVRAFQQKHKLKVDGIVGSKTWALLLAD” the “soluble fraction (log2)” value was -1.04.
With “HMTPDGNATVWSANGYGVRLRTGPGKGYAIIGVYSVGTTVKVLERGPAGGWDHIQVGSRVGYMMNEFLHYY” the “soluble fraction (log2)” value was -1.69.
For “HMTPDLSEFKERLRQILPGEPIEVRTANDGIVLSGTVTSIAALDRALDLAERYAPDKVSNLLSVG”, the “soluble fraction (log2)” value was 0.0882.
With “HMTPELTAEEREVLSLLGDEPRTLAELIAASGRDYAALSVLLMGLELSQAVRQLPGNRYERF” the “soluble fraction (log2)” value was -0.934.
With “HMTPGPFLVYITGAVERPNVLVTLDYGSRVIDALNAAGGSRIDANLDLVNLAQRLVDGDQIHVPTLR” the “soluble fraction (log2)” value was -1.28.
For “HMTPGPYETLKPAPLGSYIEPKIGFATAIEIARKEAVQLGIKTEAGGIWYGGDFPFYNVSFFDPDD”, the “soluble fraction (log2)” value was -0.615.
For “HMTPKVTVPDVTGQTFSSAKQILESLGFTVKQQGSTDETDQVIDQNPTSGEADKGATITLTTKSS”, the “soluble fraction (log2)” value was 0.297.
For “HMTPPAQQPHEGLPTDETATDAKTLVQKSRWWLEEEQRQREAGNTAYAERIRLALIQLLYRAERA”, the “soluble fraction (log2)” value was 0.0784.
For “HMTPQNAAAVLRYLSSGAIKGVGPSTAQRIVEKFGAESLDIIQNKPEELATIRGISLSKALAVSEEYNKQY”, the “soluble fraction (log2)” value was -0.202.
In the case of “HMTPTFSNQDLIKAGLAGSPVAKRRRERLGELLGIGYGNAKQLLKRLDLFAIDRPTFERAVAQLDQEGK”, the “soluble fraction (log2)” value is reported as -0.161.
For “HMTPVSQIATKDIEEKIDSLSDEYKDPFILHFKGFKYKEIADQLDIPIGTVKSRIFIARKKLIDLLPDY”, the “soluble fraction (log2)” value was -0.115.
For “HMTQEHDESVNLGKRLLDQALSRFGTSYRQLKKSEIKRILQSSGASTFKYILHQIGLGNRVPLAIANLIV”, the “soluble fraction (log2)” value was -0.0734.
For “HMTQEMPAEVKKKADAFNNAMDEENYTEAKAILAELEQNTAPSYPLLLQMQTRYAFETASWE”, the “soluble fraction (log2)” value was -0.00382.
In the case of “HMTQFSASSERAGAGGAYRTTLRAMEQNGDLLQISILLPDAVTAKHAATVWPERAQAIYTAILSELLK”, the “soluble fraction (log2)” value is reported as -0.446.
In the case of “HMTQGIDQISFSQFLDKVQSGEVTDVRISGSDITGTLKTGGKFETVAGNYEKIWDLLRENKVVFVVDSP”, the “soluble fraction (log2)” value is reported as 0.0436.
In the case of “HMTQNSAITNRVLYMQRTLRQYGYAVPESGNFDRTTRAHAAEFLYNATGLPVRENQSVQEFYRAFQRVQG”, the “soluble fraction (log2)” value is reported as -0.981.
For “HMTQRRLQSELDSIPGVGAGTRTKLLRTLGSVDAVLRASEAELLAAGANRRQVASIQAHAAAVER”, the “soluble fraction (log2)” value was -0.0642.
In the case of “HMTQSQSLQSQFEQLEKAYQDNLHLLSPKQKLIIQEAGKIIQQLPQQAQIQAKVNLYQSLSAEISKESQQ”, the “soluble fraction (log2)” value is reported as 0.118.
With “HMTQTDINQIETLVHEGNKLAAVKLLMDTAHIGLKEAKDIIDNFFLGKQTDLQAAVAQVQTR” the “soluble fraction (log2)” value was 0.123.
With “HMTRHIQVNDSIASTPIEDVYFSTRTYNALLNNGISVIGDLSKYTHDDLYASFQGLGRAGVLEIEAYLRQD” the “soluble fraction (log2)” value was -1.53.
With “HMTRHSSVDFAGYILRNKENEPIFGFGKHKGKTVVEVLQREQGYFGWLMEADFPLYTKKVLTAIRLNTLNS” the “soluble fraction (log2)” value was -0.117.
In the case of “HMTRLDLQNAFRVLPPEIQPAAVLFFLQERKQREIAKILGIGLPLVKYRIRKARELLAQFLRKEA”, the “soluble fraction (log2)” value is reported as -0.241.
For “HMTRNEFLTALRGRLSALPKEEQDAALKYYEEYFDEAESEEDAARQLGSPDSIAEKILADYA”, the “soluble fraction (log2)” value was -0.17.
In the case of “HMTRQNTAVQQSDMAHHKASELTEGMSIVHSHFGRGTIISIETADDPRVTVDFSSEGRKTMLLRFAKFAIE”, the “soluble fraction (log2)” value is reported as -0.118.
With “HMTRQRQLIYNIIQRADDHPTAEMIYARAKAEMPSIAFGTVYRNLKLMVDAGEILHIPVAGEPDRYDK” the “soluble fraction (log2)” value was -1.98.
In the case of “HMTRVANIPYSEFLKLVETDKINDVSMVGKTISGHLDDGTKFSTYTPPNDPNLIDKLSKHNVIIKAGPE”, the “soluble fraction (log2)” value is reported as 0.0971.
With “HMTRVDKLQTWLSLPREQRDWDEGALMLLQLTGNKIMYRNLSVNPEGKANFIEGKLQQYLEFRLA” the “soluble fraction (log2)” value was -1.26.
In the case of “HMTSAHEKAFDLFDGGKLSEKALLIAVGAERSGFELAGDLRLRTLTAFEDGRLSEDAMIKLL”, the “soluble fraction (log2)” value is reported as -0.385.
With “HMTSAIAEGTVIRLTQSTNIRESMSEDAPKVATAFSGEKVTVIMSYAEGWTKVTYGDKTGYIKTELL” the “soluble fraction (log2)” value was -0.184.
With “HMTSAPHHIAAVLRDAIYRGVLEEGGPLHQARIAQSLGVSPIPLREALRLLETEGLVEFRGYRGAFVT” the “soluble fraction (log2)” value was -0.492.
For “HMTSDADSLRDKTGYVAEQVTSKGGKVNLYDGGFDSLYSARSTGETISTGTEIRVVDPGGGNMLVVEPV”, the “soluble fraction (log2)” value was 0.367.
In the case of “HMTSDYEPSEKDEKAVIGIAFLRNTDVYDVDIDKAEAIKALKANNDIYQKFVKFFPFVKLPSLYDDFQ”, the “soluble fraction (log2)” value is reported as -0.00582.
In the case of “HMTSGPAWPALSAQQRSVLAPLQRDWHTIDAARKAKWLEVAARFPSMPAEERQRVQERMAEWA”, the “soluble fraction (log2)” value is reported as -0.0518.
In the case of “HMTSKIIIGDSYSKINKLLGEPENMKKRKFLDNEYLMVLYSINKKNYRLYFKDNILFELEDI”, the “soluble fraction (log2)” value is reported as -0.941.
With “HMTSLQDLLEELRVIRETLTGSQVLSDMQLFSQLRNLGDIKAALTRMQDNPAAARMVGEVDKLLETMFAS” the “soluble fraction (log2)” value was -0.955.
In the case of “HMTSLSYINDLVTGATAQGLYRIVVPNQFMDDNMANVLRRTYGYQVQSRTSLMGTFDDYIISWAPPM”, the “soluble fraction (log2)” value is reported as -2.45.
For “HMTSMTHLGRHPDSEISLDDISVSRRHAEIERQGHEYVLRDSGSLNGTYVNQQRVDSVVLQQGDEIL”, the “soluble fraction (log2)” value was 0.234.
With “HMTSPLQIHPNPATKHIELGLESPEVVLIKDINGKTVYQELVAPNQYIDIEHLKNGIYFIESKNKFGKLIK” the “soluble fraction (log2)” value was 0.169.
For “HMTSPNPLIRSTTPGLETNKKGGIIVDENEMSTRENVFAGGDAVTGAATVILAMGAGKKAAAAIDAKLQN”, the “soluble fraction (log2)” value was 0.12.
For “HMTSPQGIERFLASGVIEGVGKAMAARIVAVFGGQTLEIIEKQPHRLREVRGIGVKTAEKIHASYQEKA”, the “soluble fraction (log2)” value was -0.81.
In the case of “HMTSPVEDLLDKAIQLYREENFEEAIAKWEEVLALDPSKLEAKFNIEIAQDRIKEKQIQEDLKSS”, the “soluble fraction (log2)” value is reported as 0.0629.
In the case of “HMTSQVTVHVVGAVEKPGVVTLDAPSRVQDALEAAGGALPEAELSGVNLARELFDGEQIVVPAQGEDV”, the “soluble fraction (log2)” value is reported as -0.0113.
For “HMTSSVIIPKLIGKTEEEAKVALAGLNVQVLYETHGDQANGIVIKQSFEEGTKVIKGVSIVITVNKVS”, the “soluble fraction (log2)” value was 0.0698.
For “HMTSTEQEILIEHMVDRLPALRKKYGISQTELGEKIGLSRQTISAIERKTTPLTWTTMLAILMFFT”, the “soluble fraction (log2)” value was -1.7.
In the case of “HMTSTSVKYVNSSSGLNVRKGPSTSYDKVTTLVNGTKVTVISTNNGWSKITSGSITGYVSSQYLSSSS”, the “soluble fraction (log2)” value is reported as -0.147.
In the case of “HMTSVAYVIDRINKIQNVYSELEALGLKDEFEKILSNIEDLSKKDIREIKTLLKTKGVIKNLDDLNVKL”, the “soluble fraction (log2)” value is reported as -0.0059.
With “HMTSVQDLLRNGDRVGYQNGSTVKYWLEEMGFHKKDLLGYVTVEEYAEALQRGSGNGGVSAIVD” the “soluble fraction (log2)” value was -0.961.
In the case of “HMTTARERVYKTLQQWIVNGTLLPEERLNDVELARYFSVSRTPVREALQMLAEQKLVKMVPSSGTFVA”, the “soluble fraction (log2)” value is reported as -0.769.
For “HMTTELDTTAITPIIQKVLKANPDVVAKYKAGQQQVIGFLMGQVMRELSTKPNPKELQSLIVAQLQQA”, the “soluble fraction (log2)” value was 0.0755.
In the case of “HMTTGEIIQRERTRLGLSQEKLAEQVGVSRQAVSKWELGDAVPDTDKLVPLARTLGISVDTLLD”, the “soluble fraction (log2)” value is reported as 0.0247.
In the case of “HMTTGGAEELGRTERKIVEQVGRGLSNREIAQVLGLSEGTVRNYLSTILGKLGLRDRTQLAIWSVQTGFAA”, the “soluble fraction (log2)” value is reported as 0.197.
With “HMTTHERHEIIELLRQVGDPMRPKEISEALGKPSGAIRFLLSKLTEEGAIKKTGYGQYTYIP” the “soluble fraction (log2)” value was -0.359.
In the case of “HMTTLTPIGKMKGEIDGDFEAFYLAVDKDGQVYLNRDPDYSENRYEKSRGWELVTREQLAVYEKELHFIP”, the “soluble fraction (log2)” value is reported as -0.406.
For “HMTTMYKSDVKGINYDVKAKSWFLRITFNGNQIPIGHFKTEEDAINVKQQLIPYIESKDYTSILAVKAKYS”, the “soluble fraction (log2)” value was -0.4.
In the case of “HMTTPDIIVPDVKGMTVAEAQKALEEKGFKVKLEEMTQEGAVPGDVIRIDPVAGTKRKEGAKITLLIARG”, the “soluble fraction (log2)” value is reported as 0.161.
In the case of “HMTTQTGTVKWFNEGKGFGFIAPDDGGKDLFAHFKEIQGTGFKTLAENQRVEFEVTQGQKGPQASKI”, the “soluble fraction (log2)” value is reported as -0.0807.
With “HMTTQTTKYVNTTAGLNVRTGPSTSYAKIVTLSYGQSVNVLSTSNGWSKINYNGSTGYVSSQYLQSTKPS” the “soluble fraction (log2)” value was -0.619.
With “HMTTSNPMNVTSAEAAFDNGTDRLNAFISGRTTSEERSTYFPLFVRETKEDFLRAVGRFNEYIANHG” the “soluble fraction (log2)” value was 0.0364.
For “HMTTTAGTAVVQTGNSGKLNLREQAYSNAGILGRYSNGTIVTVLQKGSAWSYVEVQGQKGYMMSKFLRFT”, the “soluble fraction (log2)” value was 0.293.
For “HMTTTFGWENLVGEKGIAATDLHPSGWVTVKDQRVFVVSEGTFIEEGKEVEIMNVDGNRIVVREFKN”, the “soluble fraction (log2)” value was 0.0515.
With “HMTTTPTSQMVTELRSRGWTLRALAQRLGVGHASINRWANGVTPDRDLVAALRALVASGEVP” the “soluble fraction (log2)” value was -0.216.
For “HMTTTYEINDEMLKPLILEIFNKSKQRFGSTKIAPVLKREGYTASIAKVKTLMNELGIKPVNA”, the “soluble fraction (log2)” value was -0.319.
For “HMTTTYTVPKVTGMTLEEAREDPDVVGRFTIVEGEKVTSDTVPVGQIVSQEPAAHRQVGEDGLTITVNIS”, the “soluble fraction (log2)” value was 0.289.
For “HMTTVKDRVYEILKREIVLGKLKPGEPINIAVLSTKLNISSAPLREALNMLSRDGLVTLNPRKHAAVSE”, the “soluble fraction (log2)” value was -0.499.
